Assay in all cases: SPR; He Ab vs HeCon Ab (GpH7-A5/GpH7-B3/GpL16-k0)=100;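 further: surface plasmon resonance at 25 °C with the test antibody captured on a sensor chip via antigenic peptide, protein L or protein A/G and FcγR flowed over as analyte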
(In SPR one partner is held on a chip, and binding of the other changes the refractive index at the surface.)

Test [1] has as its target T1, FcγRIIa(H) extracellular domain, C-terminal His tag (human, UniProt P12318 34-217).
T1 construct: extracellular domain; also called 2aH
T1 sequence: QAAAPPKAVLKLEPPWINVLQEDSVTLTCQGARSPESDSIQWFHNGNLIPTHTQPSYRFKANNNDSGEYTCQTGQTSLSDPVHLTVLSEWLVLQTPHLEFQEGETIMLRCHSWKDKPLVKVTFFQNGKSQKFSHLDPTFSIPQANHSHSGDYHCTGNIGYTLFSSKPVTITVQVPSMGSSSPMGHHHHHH

Test [2] addresses T2, FcγRIIa(R) extracellular domain, C-terminal His tag (human, UniProt P12318 34-217).
T2 construct: extracellular domain; also called 2aR
T2 sequence: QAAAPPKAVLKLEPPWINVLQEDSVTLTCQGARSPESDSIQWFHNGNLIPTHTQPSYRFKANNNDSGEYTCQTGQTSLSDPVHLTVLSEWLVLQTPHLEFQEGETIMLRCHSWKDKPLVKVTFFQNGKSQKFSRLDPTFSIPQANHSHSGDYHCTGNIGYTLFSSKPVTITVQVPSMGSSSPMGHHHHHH

The target in test [3] is T3, FcγRIa extracellular domain, C-terminal His tag (human, UniProt P12314 16-292).
T3 construct: extracellular domain; also called 1a
T3 sequence (P12314 other isoform, or with tags, fused parts or gaps): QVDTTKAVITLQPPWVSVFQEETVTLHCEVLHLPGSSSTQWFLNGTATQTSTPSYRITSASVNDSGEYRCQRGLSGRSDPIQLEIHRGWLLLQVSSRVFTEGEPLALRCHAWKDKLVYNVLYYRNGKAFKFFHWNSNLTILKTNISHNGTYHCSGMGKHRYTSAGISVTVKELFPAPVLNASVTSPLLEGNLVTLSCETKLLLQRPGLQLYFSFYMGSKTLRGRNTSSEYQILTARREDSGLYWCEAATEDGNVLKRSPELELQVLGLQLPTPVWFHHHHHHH

In test [4] the target is T4, FcγRIIb extracellular domain, C-terminal His tag (human, UniProt P31994 43-217).
T4 construct: extracellular domain; also called 2b
T4 sequence: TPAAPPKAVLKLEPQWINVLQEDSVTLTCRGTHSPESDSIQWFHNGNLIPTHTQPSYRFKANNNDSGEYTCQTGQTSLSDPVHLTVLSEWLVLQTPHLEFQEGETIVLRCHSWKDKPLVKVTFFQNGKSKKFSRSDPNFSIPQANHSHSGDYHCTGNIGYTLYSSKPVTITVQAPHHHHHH

Test [5] deals with T5, FcγRIIIa extracellular domain, C-terminal His tag (human, UniProt P08637 17-208).
T5 construct: extracellular domain; also called 3a
T5 sequence (P08637 other isoform, or with tags, fused parts or gaps): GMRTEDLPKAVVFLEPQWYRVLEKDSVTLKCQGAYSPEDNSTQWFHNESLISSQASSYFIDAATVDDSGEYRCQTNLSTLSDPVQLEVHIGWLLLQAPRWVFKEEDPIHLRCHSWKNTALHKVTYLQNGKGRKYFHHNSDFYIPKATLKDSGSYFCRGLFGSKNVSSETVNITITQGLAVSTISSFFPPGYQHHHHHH

Data on 11 molecules can be found in patent publication US20260167699A1 (Chugai, published 2026).

B1: GpH7-A5/GpH7-B3 variant S298_02A/GpL16-k0 (antibody, human IgG1, kappa)
heavy 1: not shown
heavy 2: not shown
light: DIVMTQSPLSLPVTPGEPASISCQASESLVHSNRNTYLHWYLQKPGQSPQLLIYKVSNRFSGVPDRFSGSGSGTDFTLKISRVEAEDVGVYYCSQNTHVPPTFGQGTKVEIERTVAAPSVFIFPPSDEQLKSGTASVVCLLNNFYPREAKVQWKVDNALQSGNSQESVTEQDSKDSTYSLSSTLTLSKADYEKHKVYACEVTHQGLSSPVTKSFNRGEC
notes: heterodimerized IgG1, one H chain mutated; also called He Ab; copies: 1 + 1 + 2
For B1, in test [1], the “He/Con 2aH” value turned out to be 74.3%. The “He/Con 2aR” value in test [2] came to 87.2%. The “He/Con 1a” value in test [3] was determined as 103%. For the same molecule, in test [4], the “He/Con 2b” value is 74.4%. For the same molecule, the “He/Con 3a” value in test [5] is 151%.

B2: GpH7-A5/GpH7-B3 variant S298_03V/GpL16-k0 (antibody, human IgG1, kappa)
heavy 1: not shown
heavy 2: not shown
light: DIVMTQSPLSLPVTPGEPASISCQASESLVHSNRNTYLHWYLQKPGQSPQLLIYKVSNRFSGVPDRFSGSGSGTDFTLKISRVEAEDVGVYYCSQNTHVPPTFGQGTKVEIERTVAAPSVFIFPPSDEQLKSGTASVVCLLNNFYPREAKVQWKVDNALQSGNSQESVTEQDSKDSTYSLSSTLTLSKADYEKHKVYACEVTHQGLSSPVTKSFNRGEC
notes: as for B1
As for B2, the “He/Con 2aH” value in test [1] amounted to 83.2%. For the same molecule, the “He/Con 2aR” value in test [2] came to 82.5%. Further, in test [3], the “He/Con 1a” value turned out to be 106%. Also, in test [4], the “He/Con 2b” value is 65.4%. Also, the “He/Con 3a” value in test [5] came to 103%.

B3: GpH7-A5/GpH7-B3 variant S298_14T/GpL16-k0 (antibody, human IgG1, kappa)
heavy 1: not shown
heavy 2: not shown
light: DIVMTQSPLSLPVTPGEPASISCQASESLVHSNRNTYLHWYLQKPGQSPQLLIYKVSNRFSGVPDRFSGSGSGTDFTLKISRVEAEDVGVYYCSQNTHVPPTFGQGTKVEIERTVAAPSVFIFPPSDEQLKSGTASVVCLLNNFYPREAKVQWKVDNALQSGNSQESVTEQDSKDSTYSLSSTLTLSKADYEKHKVYACEVTHQGLSSPVTKSFNRGEC
notes: as for B1
With B3, in test [1], the “He/Con 2aH” value was determined as 96.2%. The “He/Con 2aR” value in test [2] was determined as 94.2%. Besides, the “He/Con 1a” value in test [3] stood at 104%. Further, the “He/Con 2b” value in test [4] worked out at 79%. The “He/Con 3a” value in test [5] was 106%.

B4: GpH7-A5/GpH7-B3 variant S298_16H/GpL16-k0 (antibody, human IgG1, kappa)
heavy 1: not shown
heavy 2: not shown
light: DIVMTQSPLSLPVTPGEPASISCQASESLVHSNRNTYLHWYLQKPGQSPQLLIYKVSNRFSGVPDRFSGSGSGTDFTLKISRVEAEDVGVYYCSQNTHVPPTFGQGTKVEIERTVAAPSVFIFPPSDEQLKSGTASVVCLLNNFYPREAKVQWKVDNALQSGNSQESVTEQDSKDSTYSLSSTLTLSKADYEKHKVYACEVTHQGLSSPVTKSFNRGEC
notes: as for B1
For B4, in test [1], the “He/Con 2aH” value stood at 80.2%. Moreover, the “He/Con 2aR” value in test [2] came to 84.7%. For the same molecule, the “He/Con 1a” value in test [3] came to 105%. In addition, the “He/Con 2b” value in test [4] worked out at 64.4%. Besides, in test [5], the “He/Con 3a” value worked out at 71.9%.

B5: GpH7-A5/GpH7-B3 variant S298_11K/GpL16-k0 (antibody, human IgG1, kappa)
heavy 1: not shown
heavy 2: not shown
light: DIVMTQSPLSLPVTPGEPASISCQASESLVHSNRNTYLHWYLQKPGQSPQLLIYKVSNRFSGVPDRFSGSGSGTDFTLKISRVEAEDVGVYYCSQNTHVPPTFGQGTKVEIERTVAAPSVFIFPPSDEQLKSGTASVVCLLNNFYPREAKVQWKVDNALQSGNSQESVTEQDSKDSTYSLSSTLTLSKADYEKHKVYACEVTHQGLSSPVTKSFNRGEC
notes: as for B1
For the molecule B5, the “He/Con 2aH” value in test [1] was 63.9%. In addition, the “He/Con 2aR” value in test [2] is 91%. In test [3], the “He/Con 1a” value came out at 106%. In addition, the “He/Con 2b” value in test [4] was 62.2%. Besides, the “He/Con 3a” value in test [5] is 50%.

B6: GpH7-A5/GpH7-B3 variant S298_07I/GpL16-k0 (antibody, human IgG1, kappa)
heavy 1: not shown
heavy 2: not shown
light: DIVMTQSPLSLPVTPGEPASISCQASESLVHSNRNTYLHWYLQKPGQSPQLLIYKVSNRFSGVPDRFSGSGSGTDFTLKISRVEAEDVGVYYCSQNTHVPPTFGQGTKVEIERTVAAPSVFIFPPSDEQLKSGTASVVCLLNNFYPREAKVQWKVDNALQSGNSQESVTEQDSKDSTYSLSSTLTLSKADYEKHKVYACEVTHQGLSSPVTKSFNRGEC
notes: as for B1
As for B6, the “He/Con 2aH” value in test [1] amounted to 84.9%. Further, the “He/Con 2aR” value in test [2] turned out to be 86.2%. The “He/Con 1a” value in test [3] worked out at 104%. Further, the “He/Con 2b” value in test [4] was 71.5%. For the same molecule, the “He/Con 3a” value in test [5] was 90.7%.

B7: GpH7-A5/GpH7-B3 variant S298_08L/GpL16-k0 (antibody, human IgG1, kappa)
heavy 1: not shown
heavy 2: not shown
light: DIVMTQSPLSLPVTPGEPASISCQASESLVHSNRNTYLHWYLQKPGQSPQLLIYKVSNRFSGVPDRFSGSGSGTDFTLKISRVEAEDVGVYYCSQNTHVPPTFGQGTKVEIERTVAAPSVFIFPPSDEQLKSGTASVVCLLNNFYPREAKVQWKVDNALQSGNSQESVTEQDSKDSTYSLSSTLTLSKADYEKHKVYACEVTHQGLSSPVTKSFNRGEC
notes: as for B1
Take B7: the “He/Con 2aH” value in test [1] turned out to be 83%. For the same molecule, the “He/Con 2aR” value in test [2] was determined as 100%. The “He/Con 1a” value in test [3] was 104%. Further, the “He/Con 2b” value in test [4] was 110%. Besides, the “He/Con 3a” value in test [5] came to 69.2%.

B8: GpH7-A5/GpH7-B3 variant S298_12R/GpL16-k0 (antibody, human IgG1, kappa)
heavy 1: not shown
heavy 2: not shown
light: DIVMTQSPLSLPVTPGEPASISCQASESLVHSNRNTYLHWYLQKPGQSPQLLIYKVSNRFSGVPDRFSGSGSGTDFTLKISRVEAEDVGVYYCSQNTHVPPTFGQGTKVEIERTVAAPSVFIFPPSDEQLKSGTASVVCLLNNFYPREAKVQWKVDNALQSGNSQESVTEQDSKDSTYSLSSTLTLSKADYEKHKVYACEVTHQGLSSPVTKSFNRGEC
notes: as for B1
Regarding B8, in test [1], the “He/Con 2aH” value was 67.4%. Also, the “He/Con 2aR” value in test [2] was found to be 81.6%. The “He/Con 1a” value in test [3] came to 106%. Further, in test [4], the “He/Con 2b” value worked out at 58.6%. Moreover, the “He/Con 3a” value in test [5] was 52.1%.

B9: GpH7-A5/GpH7-B3 variant S298_15Y/GpL16-k0 (antibody, human IgG1, kappa)
heavy 1: not shown
heavy 2: not shown
light: DIVMTQSPLSLPVTPGEPASISCQASESLVHSNRNTYLHWYLQKPGQSPQLLIYKVSNRFSGVPDRFSGSGSGTDFTLKISRVEAEDVGVYYCSQNTHVPPTFGQGTKVEIERTVAAPSVFIFPPSDEQLKSGTASVVCLLNNFYPREAKVQWKVDNALQSGNSQESVTEQDSKDSTYSLSSTLTLSKADYEKHKVYACEVTHQGLSSPVTKSFNRGEC
notes: as for B1
B9: in test [1], the “He/Con 2aH” value was determined as 71.2%. Further, the “He/Con 2aR” value in test [2] is 75.7%. Besides, the “He/Con 1a” value in test [3] stood at 104%. For the same molecule, in test [4], the “He/Con 2b” value stood at 62.2%. For the same molecule, the “He/Con 3a” value in test [5] amounted to 80.6%.

B10: GpH7-A5/GpH7-B3 variant S298_06M/GpL16-k0 (antibody, human IgG1, kappa)
heavy 1: not shown
heavy 2: not shown
light: DIVMTQSPLSLPVTPGEPASISCQASESLVHSNRNTYLHWYLQKPGQSPQLLIYKVSNRFSGVPDRFSGSGSGTDFTLKISRVEAEDVGVYYCSQNTHVPPTFGQGTKVEIERTVAAPSVFIFPPSDEQLKSGTASVVCLLNNFYPREAKVQWKVDNALQSGNSQESVTEQDSKDSTYSLSSTLTLSKADYEKHKVYACEVTHQGLSSPVTKSFNRGEC
notes: as for B1
Consider B10, for which the “He/Con 2aH” value in test [1] came to 95.8%. The “He/Con 2aR” value in test [2] worked out at 104%. For the same molecule, the “He/Con 1a” value in test [3] is 111%. The “He/Con 2b” value in test [4] came out at 103%. For the same molecule, in test [5], the “He/Con 3a” value was determined as 87.2%.

B11: GpH7-A5/GpH7-B3 variant S298_04F/GpL16-k0 (antibody, human IgG1, kappa)
heavy 1: not shown
heavy 2: not shown
light: DIVMTQSPLSLPVTPGEPASISCQASESLVHSNRNTYLHWYLQKPGQSPQLLIYKVSNRFSGVPDRFSGSGSGTDFTLKISRVEAEDVGVYYCSQNTHVPPTFGQGTKVEIERTVAAPSVFIFPPSDEQLKSGTASVVCLLNNFYPREAKVQWKVDNALQSGNSQESVTEQDSKDSTYSLSSTLTLSKADYEKHKVYACEVTHQGLSSPVTKSFNRGEC
notes: as for B1
Regarding B11, the “He/Con 2aH” value in test [1] stood at 75.5%. In addition, the “He/Con 2aR” value in test [2] turned out to be 80.4%. Besides, in test [3], the “He/Con 1a” value came to 106%. The “He/Con 2b” value in test [4] came to 66.3%. Also, the “He/Con 3a” value in test [5] is 77.6%.
